# According to publication PMC12329595, “Engineered bacteriophytochrome heterodimers for research and applications” (The Journal of Biological Chemistry, 2025):
# Substitutions are numbered along the chain they refer to. Names and notes keep the numbering of the source. Like-named read-outs stand apart in the source and are kept apart here.
# B1: DrBphPRR (full-length DrBphP E148R/E306R) (natural protein)
# chain: MSRDPLPFFPPLYLGGPEITTENCEREPIHIPGSIQPHGALLTADGHSGEVLQMSLNAATFLGQEPTVLRGQTLAALLPEQWPALQAALPPGCPDALQYRATLDWPAAGHLSLTVHRVGELLILEFEPTEAWDSTGPHALRNAMFALRSAPNLRALAEVATQTVRELTGFDRVMLYKFAPDATGEVIAEARREGLHAFLGHRFPASDIPAQARALYTRHLLRLTADTRAAAVPLDPVLNPQTNAPTPLGGAVLRATSPMHMQYLRNMGVGSSLSVSVVVGGQLWGLIACHHQTPYVLPPDLRTTLRYLGRLLSLQVQVKEAADVAAFRQSLREHHARVALAAAHSLSPHDTLSDPALDLLGLMRAGGLILRFEGRWQTLGEVPPAPAVDALLAWLETQPGALVQTDALGQLWPAGADLAPSAAGLLAISVGEGWSECLVWLRPELRLEVAWGGATPDQAKDDLGPRHSFDTYLEEKRGYAEPWHPGEIEEAQDLRDTLTGALGERLSVIRDLNRALTQSNAEWRQYGFVISHHMQEPVRLISQFAELLTRQPRAQDGSPDSPQTERITGFLLRETSRLRSLTQDLHTYTALLSAPPPVRRPTPLGRVVDDVLQDLEPRIADTGASIEVAPELPVIAADAGLLRDLLLHLIGNALTFGGPEPRIAVRTERQGAGWSIAVSDQGAGIAPEYQERIFLLFQRLGSLDEALGNGLGLPLCRKIAELHGGTLTVESAPGEGSTFRCWLPDAGPLPGAADA
# modifications: biliverdin IXα covalently linked to a conserved cysteine (holoprotein)
# notes: Deinococcus radiodurans strain R1 bacteriophytochrome DrBphP, full length; source: E. coli BL21 (DE3), purified (Ni-NTA, SEC)
# B2: DrBphPEE (full-length DrBphP R141E/R310E) (natural protein)
# chain: B1 chain with R141E, R148E, R306E, R310E
# modifications: biliverdin IXα covalently linked to a conserved cysteine (holoprotein)
# notes: as for B1
# B3: DrBphPRE (full-length DrBphP E306R/R310E) (natural protein)
# chain: B1 chain with R148E, R310E
# modifications: biliverdin IXα covalently linked to a conserved cysteine (holoprotein)
# notes: as for B1
# B4: DrBphPER (full-length DrBphP R141E/E148R) (natural protein)
# chain: B1 chain with R141E, R306E
# modifications: biliverdin IXα covalently linked to a conserved cysteine (holoprotein)
# notes: as for B1
# B5: Full-length phytochrome from Deinococcus radiodurans strain R1 (DrBphP), wild type (natural protein)
# chain: B1 chain with R148E, R306E
# modifications: biliverdin IXα covalently linked to a conserved cysteine (holoprotein)
# notes: Deinococcus radiodurans strain R1 bacteriophytochrome DrBphP, full length (PSM and histidine kinase module); also called DrBphPWT; source: E. coli BL21 (DE3), purified (Ni-NTA, SEC)
# Tests used:
# [1] = target: DrPSMRR (DrPSM E148R/E306R) (Deinococcus radiodurans strain R1); experiment: ITC; MicroCal PEAQ-ITC, 25 °C, darkness (Pr state), 30 mM Tris/HCl, 150 mM NaCl, pH 8.0; cell 9 to 18 μM, syringe 100 to 280 μM; single-site fit; individual components injected into buffer and vice versa as background
# [2] = target: DrPSMRR (DrPSM E148R/E306R) (Deinococcus radiodurans strain R1); experiment: as above; remark: listed apart in the source
# [3] = target: DrPSMRE (DrPSM E306R/R310E) (Deinococcus radiodurans strain R1); experiment: as above
# [4] = target: DrPSMRE (DrPSM E306R/R310E) (Deinococcus radiodurans strain R1); experiment: as above; remark: listed apart in the source
# [5] = target: the molecule itself; experiment: SEC; HPLC, bioZen 1.8 μm SEC-3 column, 30 mM Tris/HCl, 150 mM NaCl, pH 8.0 with 10% acetonitrile, 25 °C; full-length DrBphP and DrF1 variants and mixtures
# [6] = target: B1; experiment: as above; settings: both partners purified
# [7] = target: B3; experiment: as above; settings: both partners purified
molecule,measurement,setting,value
DrPSMEE (DrPSM R141E/R310E) (domain or fragment),Kd,[1],800 nM
same,stoichiometry N,[1],1
same,Kd,[2],12 nM
DrPSMER (DrPSM R141E/E148R) (domain or fragment),Kd,[3],12 nM
same,stoichiometry N,[3],1
same,Kd,[4],800 nM
B1,binding result,[5],binds
B2,binding result,[6],binds
B3,binding result,[5],binds
B4,binding result,[7],binds
same,binding result,[5],binds
B5,binding result,[5],binds
